Laboratory results reported in PMC9574375 (Cancer Research, 2022).
Changes are numbered by the printed parent chain. Names may count otherwise. Like-named read-outs stand apart in the source and are kept apart here.

B1: GST-tagged RET CLD4-CRD (amino acids 382–635) D567N (domain or fragment, human, UniProt P07949 382-635, looked up)
chain: QGPGAGVLLLHFNVSVLPVSLHLPSTYSLSVSRRARRFAQIGKVCVENCQAFSGINVQYKLHSSGANCSTLGVVTSAEDTSGILFVNDTKALRRPKCAELHYMVVATDQQTSRQAQAQLLVTVEGSYVAEEAGCPLSCAVSKRRLECEECGGLGSPTGRCEWRQGDGKGITRNFSTCSPSTKTCPNGHCDVVETQDINICPQDCLRGSIVGGHEPGEPRGIKAGYGTCNCFPEEEKCFCEPEDIQDPLCDELCR
B2: GST-tagged RET CLD4-CRD (amino acids 382–635), wild type (domain or fragment, human, UniProt P07949 382-635, looked up)
chain: B1 chain with N186D

What was measured:
[1] = molecular target: the molecule itself; experiment: non-reducing SDS-PAGE and immunoblot or Coomassie staining
[2] = molecular target: the molecule itself; experiment: as above; remark: listed apart in the source

Protein | binding result [1] | binding result [2]
B1 | binds | 
B2 |  | binds
